Test results: patent US20250026849A1 (ARCELLX, published 2025)
Positions count from the first letter of the chain named.

T1: BCMA (Homo sapiens (Human), UniProt Q02223 1-54, limits assumed)
T1 sequence: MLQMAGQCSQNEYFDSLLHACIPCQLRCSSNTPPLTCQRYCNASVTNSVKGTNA

B1: D-domain SEQ ID NO: 255 (designed binder)
chain: MGSWHAFKYKLAMIKWYLEALGGSEAELAHFEEWIAEFEALLQEYKGKGNPEVEALRKEAAAIRDELQAYRHN
B2: D-domain SEQ ID NO: 271 (designed binder)
chain: B1 chain with H5N, A6E, K10H, M13V, W16F, E33T, A40Y, L41E, E44K
B3: D-domain SEQ ID NO: 270 (designed binder)
chain: MGSWNQFKYRLAVIKFYLEALGGSEAELAHFETWIAAFEEQLQFYKGKGNPEVEALRKEAAAIRDELQAYRHN
B4: D-domain SEQ ID NO: 273 (designed binder)
chain: B3 chain with N5V, Q6D, R10H, Y17W, H30N, A37N, E40Q, Q41E, F44M
B5: D-domain SEQ ID NO: 276 (designed binder)
chain: B1 chain with H5S, A6H, K10H, M13L, H30K, E33F, A40H, L41N, E44M
B6: D-domain SEQ ID NO: 268 (designed binder)
chain: B3 chain with Q6T, R10H, Y17M, H30F, T33Q, A37E, E40V, Q41T, F44S
B7: D-domain SEQ ID NO: 269 (designed binder)
chain: B1 chain with H5T, A6Q, K10H, M13V, H30G, E33Q, A40K, L41T
B8: D-domain SEQ ID NO: 272 (designed binder)
chain: B3 chain with N5V, R10H, A37E, E40V, Q41A, F44G
B9: D-domain SEQ ID NO: 232 (designed binder)
chain: B3 chain with N5G, Q6E, Y9H, V13L, F16W, T33D, A37V, E40V, F44N
B10: D-domain SEQ ID NO: 254 (designed binder)
chain: B1 chain with H5G, A6Y, K10R, H30S, E33S, A40G, L41S, E44A
B11: D-domain SEQ ID NO: 238 (designed binder)
chain: B1 chain with H5D, Y9H, K10R, M13L, W34Y, A40S, L41N, E44S
B12: D-domain SEQ ID NO: 233 (designed binder)
chain: MGSWYEFKHRLAIIKWYLEALGGSEAELAKFEAWIAEFEMILQRYKGKGNPEVEALRKEAAAIRDELQAYRHN
B13: D-domain SEQ ID NO: 248 (designed binder)
chain: MGSWHEFKYRLALIKWYLEALGGSEAELATFEHHIAQFEWDLQKYKGKGNPEVEALRKEAAAIRDELQAYRHN
B14: D-domain SEQ ID NO: 237 (designed binder)
chain: B12 chain with E6N, Y17F, K30V, A33V, E37D, M40H, I41Q, R44E
B15: D-domain SEQ ID NO: 235 (designed binder)
chain: B12 chain with E6N, K30R, A33N, W34F, E37N, M40T, I41Q, R44L
B16: D-domain SEQ ID NO: 239 (designed binder)
chain: B12 chain with Y5D, E6G, I13L, K30N, A33N, M40Q, I41R, R44Y
B17: D-domain SEQ ID NO: 234 (designed binder)
chain: B12 chain with K30H, A33Q, W34Y, E37D, M40G, I41T, R44K
B18: D-domain SEQ ID NO: 249 (designed binder)
chain: B13 chain with H5N, E6M, L13H, H33A, H34Y, Q37D, W40V
B19: D-domain SEQ ID NO: 236 (designed binder)
chain: B12 chain with Y5F, E6Q, Y17Q, K30W, A33Q, E37D, M40H, I41Q, R44H
B20: D-domain SEQ ID NO: 241 (designed binder)
chain: B13 chain with H5N, E6S, Y9H, H33W, H34Y, Q37S, W40S, D41E, K44Q
B21: D-domain SEQ ID NO: 240 (designed binder)
chain: B12 chain with Y5N, E6G, K30S, A33S, W34Y, M40S, I41G, R44E
B22: D-domain SEQ ID NO: 231 (designed binder)
chain: MGSWNEFYDRLRAIKKRLYALGGSEAELADFEEDIAQFEVDLQDYKGKGNPEVEALHREAHAITHELWAYRHN
B23: D-domain SEQ ID NO: 226 (designed binder)
chain: MGSWYEFVTRLHAIDHRLKALGGSEADLAAFEKEIAAFESELQAYKGKGNPEVEWLRFYAAGIRMNLQAYRHN
B24: D-domain SEQ ID NO: 230 (designed binder)
chain: MGSWNEFYQRLEAIENRLQALGGSEAELAMFEVRIALFEDMLQGYKGKGNPEVEALKQEAIAILRELIAYRHN
B25: D-domain SEQ ID NO: 260 (designed binder)
chain: MGSWEQFKYRLAIIKYMLEALGGSEAELAWFESWIANFESDLQHYKGKGNPEVEALRKEAAAIRDELQAYRHN
B26: D-domain SEQ ID NO: 261 (designed binder)
chain: B3 chain with N5Q, V13I, F16Y, H30G, W34Y, A37K, Q41V, F44S
B27: D-domain SEQ ID NO: 225 (designed binder)
chain: MGSWDEFQFRLAAIGFRLGALGGSEAELAAFEKEIAAFESELQAYKGKGNPEVEVLRRQAARIRHLLQAYRHN
B28: D-domain SEQ ID NO: 265 (designed binder)
chain: MGSWANFKYRLALIKWHLEALGGSEAELASFEIWIADFEESLQWYKGKGNPEVEALRKEAAAIRDELQAYRHN
B29: D-domain SEQ ID NO: 267 (designed binder)
chain: B28 chain with A5T, N6H, H17W, S30G, I33V, W34H, E40A, S41Q, W44M
B30: D-domain SEQ ID NO: 266 (designed binder)
chain: B28 chain with N6T, S30D, I33E, W34Y, D37G, S41G, W44K
B31: D-domain SEQ ID NO: 222 (designed binder)
chain: MGSWGEFEGRLHAIRSRLSALGGSEAELAAFEKEIAAFESELQAYKGKGNPEVEVLRGYAAWIRALLQAYRHN
B32: D-domain SEQ ID NO: 223 (designed binder)
chain: B31 chain with E8N, H12G, S16E, S19Q, V55F, G58A, W62S, L66V
B33: D-domain SEQ ID NO: 228 (designed binder)
chain: MGSWGEFEHRLDPSTCVWLALGGSEAELAAFEKEIAAFESELQAYKGKGNPEVEKLRRGAAVIRHWLQAYRHN
B34: D-domain SEQ ID NO: 244 (designed binder)
chain: B13 chain with H5Y, E6G, L13V, T30S, H33K, H34Y, Q37H, W40H, K44A
B35: D-domain SEQ ID NO: 250 (designed binder)
chain: B25 chain with E5H, Q6G, Y16W, M17W, W30F, S33E, N37S, S40R, H44I
B36: D-domain SEQ ID NO: 262 (designed binder)
chain: B3 chain with N5A, Q6G, F16Y, T33Q, A37H, E40G, Q41M, F44D
B37: D-domain SEQ ID NO: 257 (designed binder)
chain: B25 chain with E5N, Q6D, M17Y, W30H, W34Y, N37S, S40H, H44N
B38: D-domain SEQ ID NO: 243 (designed binder)
chain: B3 chain with N5S, Q6G, H30S, T33L, W34F, A37K, E40I, Q41D, F44N
B39: D-domain SEQ ID NO: 252 (designed binder)
chain: MGSWQGFKYRLAVIKWMLEALGGSEAELAFFENWIAEFETKLQQYKGKGNPEVEALRKEAAAIRDELQAYRHN
B40: D-domain SEQ ID NO: 258 (designed binder)
chain: B25 chain with E5G, Q6A, Y16F, M17Y, W30R, S33E, W34F, S40H, H44N
B41: D-domain SEQ ID NO: 259 (designed binder)
chain: B12 chain with E6N, H9Y, W16F, K30Q, A33I, M40H, I41D, R44G
B42: D-domain SEQ ID NO: 256 (designed binder)
chain: B13 chain with H5Q, E6H, L13I, T30F, H33S, H34F, Q37K, W40H
B43: D-domain SEQ ID NO: 253 (designed binder)
chain: B39 chain with Q5S, M17Y, F30T, N33E, K41E, Q44F
B44: D-domain SEQ ID NO: 263 (designed binder)
chain: B25 chain with E5T, Q6A, Y16F, M17Y, W30H, W34Y, N37H, S40D, D41M
B45: D-domain SEQ ID NO: 242 (designed binder)
chain: B13 chain with H5S, E6D, L13V, W16F, T30S, H33S, H34F, Q37H, W40D
B46: D-domain SEQ ID NO: 245 (designed binder)
chain: B13 chain with H5Y, E6G, L13V, T30S, H33K, H34Y, W40H, K44A
B47: D-domain SEQ ID NO: 246 (designed binder)
chain: B28 chain with A5Y, N6G, H17Y, I33T, W34Y, E40D, S41L, W44A
B48: D-domain SEQ ID NO: 247 (designed binder)
chain: B13 chain with H5S, E6T, R10H, L13V, T30S, H33D, H34Y, W40T, K44E
B49: D-domain SEQ ID NO: 251 (designed binder)
chain: B39 chain with Q5H, M17Y, F30M, N33G, E37Q, T40I, K41T
B50: D-domain SEQ ID NO: 227 (designed binder)
chain: MGSWSIEFWRLEAIKFRLIALGGSEAELAAFEKEIAAFESELQAYKGKGNPEVEFLRVEAAAIRRVLQAYRHN
B51: D-domain SEQ ID NO: 224 (designed binder)
chain: MGSWWEFTFRLAAIEFRLEALGGSEAELAAFEKEIAAFESELQAYKGKGNPEVEDLRAIAAEIRKSLQAYRHN
B52: D-domain SEQ ID NO: 229 (designed binder)
chain: MGSWIEFAMRLEAIENRLTALGGSEAELAIFESMIAHFEELLQNYKGKGNPEVEALIHEAFAIHKELWAYRHN
B53: D-domain SEQ ID NO: 264 (designed binder)
chain: MGSWAHFKYRLAIIKFWLEALGGSEAELANFEEYIAEFESTLQVYKGKGNPEVEALRKEAAAIRDELQAYRHN

molecular target: T1, BCMA; experiment: ELISA, format not described; design: unit not given here

| ELISA_avg | Binder |
| --- | --- |
| 11.6 | B1 |
| 13.7 | B2 |
| 12.8 | B3 |
| 13.2 | B4 |
| 7.93 | B5 |
| 10.6 | B6 |
| 21.1 | B7 |
| 12.7 | B8 |
| 17.1 | B9 |
| 13 | B10 |
| 13 | B11 |
| 5.5 | B12 |
| 16.2 | B13 |
| 16.4 | B14 |
| 6.76 | B15 |
| 23.6 | B16 |
| 14.8 | B17 |
| 16.3 | B18 |
| 10.4 | B19 |
| 10.3 | B20 |
| 16.5 | B21 |
| 12.4 | B22 |
| 4.12 | B23 |
| 6.01 | B24 |
| 11 | B25 |
| 15.1 | B26 |
| 6.16 | B27 |

| ELISA_avg | Binder |
| --- | --- |
| 14.3 | B28 |
| 7.37 | B29 |
| 15.1 | B30 |
| 6.17 | B31 |
| 4.95 | B32 |
| 4.05 | B33 |
| 9.05 | B34 |
| 6.03 | B35 |
| 12.7 | B36 |
| 15.1 | B37 |
| 13.1 | B38 |
| 7.75 | B39 |
| 12.9 | B40 |
| 19.9 | B41 |
| 8.91 | B42 |
| 14 | B43 |
| 7.43 | B44 |
| 13 | B45 |
| 7.63 | B46 |
| 13 | B47 |
| 11.7 | B48 |
| 5.99 | B49 |
| 8.43 | B50 |
| 5.75 | B51 |
| 10.7 | B52 |
| 13.1 | B53 |
